± gives the uncertainty stated by the source.
Assay: self-splicing fitness, log relative to wild type (ln ratio); higher = more splicing; Tetrahymena group I intron in knt gene, E. coli kanamycin selection, DiMSum; sequences stand for … in CUCUCU…GGAGGGAAAAGUUAUCAGGCAUGCACCUGGUAGCUAGUCUUUAAACCAAUAGAUUGCAUCGGUUUAAAAGGCAAGACCGUCAAAUUGCGGGAAAGGGGUCAACAGCCGUUCAGUACCAAGUCUCAGGGGAAACUUUGAGAUGGCCUUGCAAAGGGUAUGGUAAUAAGCUGACGGACAUGGUCCUAACCACGCAGCCAAGUCCUAAGUCAACAGAUCUUCUGUUGAUAUGGAUGCAGUUCACAGACUAAAUGUCGGUCGGGGAAGAUGUAUUCUUCUCAUAAGAUAUAGUCGGACCUCUCCUUAAUGGGAGCUAGCGGAUGAAGUGAUGCAACACUGGAGCCGCUGGGAACUAAUUUGUAUGCGAAAGUAUAUUGAUUAGUUUUGGAGUACUCGUGGUCG
Summary of the method: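 Library with all eight P1ex-region intron nucleotides randomised, intron inside the knt kanamycin-resistance gene on pET-22b(+), in E. coli BL21(DE3). Cells grew overnight at 37°C or 30°C on LB agar with or without 25 μg/mL kanamycin (plus 100 μg/mL carbenicillin, 50 μM IPTG, 0.2% rhamnose), in six replicate transformations. Pooled colonies were amplicon-sequenced on Illumina HiSeq 2500. DiMSum fitness is the error-weighted combination of wild-type-normalised replicate fold changes, kanamycin versus none.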

Sequence | self-splicing fitness (ln) (30 °C) | self-splicing fitness (ln) (37 °C)
GACUAGCAAUAUUACGGAUA | -1.4 ± 0.09 | -0.349 ± 0.09
GACUAGCAAUAUUACGGCAU | -0.26 ± 0.059 | 0.291 ± 0.081
GACUAGCAAUAUUACGGCGA | -0.738 ± 0.079 | -0.303 ± 0.081
GACUAGCAAUAUUACGGGCG | -0.65 ± 0.061 | -0.282 ± 0.071
GACUAGCAAUAUUACGUAAA | -0.826 ± 0.097 | 0.0101 ± 0.12
GACUAGCAAUAUUACGUAUC | -2.74 ± 0.11 | -1.98 ± 0.12
GACUAGCAAUAUUACGUCGC | -3.63 ± 0.18 | -1.94 ± 0.16
GACUAGCAAUAUUACGUGAC | -1.34 ± 0.085 | -1.39 ± 0.12
GACUAGCAAUAUUACGUGCU | -3.61 ± 0.16 | -1.9 ± 0.12
GAGAAGCAAUAUUACGAAAG | -4.36 ± 0.32 | -1.5 ± 0.2
GAGAAGCAAUAUUACGACAU | -0.36 ± 0.013 | -0.137 ± 0.033
GAGAAGCAAUAUUACGACGU | -0.944 ± 0.22 | 0.108 ± 0.19
GAGAAGCAAUAUUACGAGCU | -0.838 ± 0.12 | -0.347 ± 0.11
GAGAAGCAAUAUUACGAUCA | -1.06 ± 0.15 | -0.469 ± 0.16
GAGAAGCAAUAUUACGAUCG | -0.334 ± 0.094 | -0.068 ± 0.14
GAGAAGCAAUAUUACGAUGC | -1.06 ± 0.15 | -0.435 ± 0.21
GAGAAGCAAUAUUACGCGUA | -1.03 ± 0.12 | -1.1 ± 0.13
GAGAAGCAAUAUUACGCUAU | -2.79 ± 0.19 | -1.31 ± 0.16
GAGAAGCAAUAUUACGCUUC | -2.79 ± 0.26 | -2.89 ± 0.38
GAGAAGCAAUAUUACGGAAC | -2.78 ± 0.19 | -0.25 ± 0.16
GAGAAGCAAUAUUACGGAUA | -2.16 ± 0.2 | -0.942 ± 0.21
GAGAAGCAAUAUUACGGAUG | -2.5 ± 0.14 | -0.821 ± 0.13
GAGAAGCAAUAUUACGGCGC | 0.341 ± 0.21 | -0.241 ± 0.22
GAGAAGCAAUAUUACGGGAA | -2.47 ± 0.25 | -1.24 ± 0.22
GAGAAGCAAUAUUACGGGAG | -2.12 ± 0.13 | -1.63 ± 0.18
GAGAAGCAAUAUUACGGGGU | -3.06 ± 0.2 | -3.13 ± 0.28

Sequence | self-splicing fitness (ln) (30 °C) | self-splicing fitness (ln) (37 °C)
GAGAAGCAAUAUUACGGUCC | -2.14 ± 0.24 | -1.06 ± 0.21
GAGAAGCAAUAUUACGGUUG | -2.18 ± 0.1 | -1.99 ± 0.14
GAGAAGCAAUAUUACGUAAG | -2.72 ± 0.15 | -1.1 ± 0.15
GAGAAGCAAUAUUACGUAUC | -3.78 ± 0.37 | -3.21 ± 0.35
GAGAAGCAAUAUUACGUCAA | -1.82 ± 0.11 | -0.98 ± 0.11
GAGAAGCAAUAUUACGUCAC | -3.6 ± 0.29 | -0.67 ± 0.24
GAGAAGCAAUAUUACGUCAG | -3.34 ± 0.23 | -1.35 ± 0.18
GAGAAGCAAUAUUACGUCUA | -0.555 ± 0.076 | 0.35 ± 0.092
GAGAAGCAAUAUUACGUGCG | -1.71 ± 0.093 | -1.02 ± 0.1
GAGAAGCAAUAUUACGUUGG | -2.35 ± 0.15 | -2.66 ± 0.21
GAGCAGCAAUAUUACGAACG | -2.53 ± 0.18 | -0.673 ± 0.16
GAGCAGCAAUAUUACGAAGU | -2.87 ± 0.21 | -0.867 ± 0.16
GAGCAGCAAUAUUACGAGCC | -0.545 ± 0.19 | -0.285 ± 0.21
GAGCAGCAAUAUUACGAGGU | -4.1 ± 0.33 | -1.65 ± 0.15
GAGCAGCAAUAUUACGCAAC | -2.85 ± 0.28 | -2.22 ± 0.45
GAGCAGCAAUAUUACGCAUU | -3.04 ± 0.2 | -2.23 ± 0.24
GAGCAGCAAUAUUACGCCAU | -2.67 ± 0.46 | -3.33 ± 0.43
GAGCAGCAAUAUUACGCCCA | -0.299 ± 0.18 | 0.255 ± 0.26
GAGCAGCAAUAUUACGCGGU | -3.17 ± 0.27 | -0.69 ± 0.22
GAGCAGCAAUAUUACGCGUA | -0.655 ± 0.18 | -0.959 ± 0.14
GAGCAGCAAUAUUACGCUCC | -2.25 ± 0.35 | -0.34 ± 0.38
GAGCAGCAAUAUUACGGAAU | -3.37 ± 0.22 | -2.08 ± 0.2
GAGCAGCAAUAUUACGGAGA | -4.02 ± 0.25 | -2.16 ± 0.16
GAGCAGCAAUAUUACGGCAC | -0.575 ± 0.1 | -0.126 ± 0.17
GAGCAGCAAUAUUACGGCGU | -0.163 ± 0.14 | 0.683 ± 0.18
GAGCAGCAAUAUUACGGUCA | -0.942 ± 0.11 | -0.118 ± 0.11

Sequence | self-splicing fitness (ln) (30 °C) | self-splicing fitness (ln) (37 °C)
GAGCAGCAAUAUUACGGUGC | -2.98 ± 0.18 | -2.61 ± 0.18
GAGCAGCAAUAUUACGUAUC | -2.06 ± 0.087 | -1.44 ± 0.091
GAGCAGCAAUAUUACGUGCU | -3.11 ± 0.2 | -2.2 ± 0.23
GAGCAGCAAUAUUACGUGGG | -3.13 ± 0.24 | -3.03 ± 0.27
GAGCAGCAAUAUUACGUGUG | -3.28 ± 0.12 | -0.789 ± 0.11
GAGGAGCAAUAUUACGACAA | -2.14 ± 0.24 | -1.1 ± 0.27
GAGGAGCAAUAUUACGAGCU | – | -1.77 ± 0.47
GAGGAGCAAUAUUACGAUCA | -2.5 ± 0.22 | -1.59 ± 0.19
GAGGAGCAAUAUUACGCACA | -1.61 ± 0.32 | -0.287 ± 0.23
GAGGAGCAAUAUUACGCGUG | -1.55 ± 0.19 | -0.66 ± 0.23
GAGGAGCAAUAUUACGCUAA | -1.86 ± 0.32 | –
GAGGAGCAAUAUUACGCUAU | -2.8 ± 0.27 | -2.05 ± 0.45
GAGGAGCAAUAUUACGCUGC | -4.13 ± 0.38 | –
GAGGAGCAAUAUUACGGAAC | -3.68 ± 0.44 | -0.46 ± 0.28
GAGGAGCAAUAUUACGGCAA | -2.41 ± 0.21 | -0.766 ± 0.26
GAGGAGCAAUAUUACGGGCA | -1.33 ± 0.32 | -3.44 ± 0.47
GAGGAGCAAUAUUACGGGUA | – | -2.26 ± 0.36
GAGGAGCAAUAUUACGGGUU | -1.74 ± 0.14 | -2.23 ± 0.22
GAGGAGCAAUAUUACGGUUA | -2.45 ± 0.28 | -2.2 ± 0.3
GAGGAGCAAUAUUACGUAGC | -0.914 ± 0.2 | -1.02 ± 0.37
GAGGAGCAAUAUUACGUCAG | -3.5 ± 0.37 | –
GAGGAGCAAUAUUACGUGGG | -3.08 ± 0.36 | -1.91 ± 0.4
GAGGAGCAAUAUUACGUUAU | -3.32 ± 0.23 | -2.96 ± 0.32
GAGGAGCAAUAUUACGUUUC | -2.74 ± 0.42 | –
GAGGAGCAAUAUUACGUUUG | -3.33 ± 0.16 | -1.92 ± 0.13
GAGUAGCAAUAUUACGAAUA | -2 ± 0.14 | -1.76 ± 0.14

— the supplement of paper PMC7877785
